The text below walks through data of publication PMC11067348.

The target of this experiment is T1, pM-Gal4DBD-AR (amino acids 624-919), P10275.
T1 chain: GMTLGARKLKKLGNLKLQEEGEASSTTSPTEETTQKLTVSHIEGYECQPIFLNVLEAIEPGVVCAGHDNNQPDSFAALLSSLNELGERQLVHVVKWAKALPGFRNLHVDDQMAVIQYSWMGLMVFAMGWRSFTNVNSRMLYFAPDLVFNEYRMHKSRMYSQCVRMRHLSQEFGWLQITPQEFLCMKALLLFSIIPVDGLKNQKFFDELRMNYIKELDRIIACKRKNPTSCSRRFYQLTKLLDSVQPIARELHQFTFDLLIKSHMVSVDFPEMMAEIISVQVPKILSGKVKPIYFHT
Nature of the experiment: mammalian two-hybrid. Particulars: chain shown with the change, HEK293T cells, read off a plot.

B1: pVP16-AR111Q (amino acids 12-660), P10275 F23A (protein)
chain: PRPPSKTYRGAAQNLFQSVREVIQNPGPRHPEAASAAPPGASLLLLQQQQQQQQQQQQQQQQQQQQQQQETSPRQQQQQQGEDGSPQAHRRGPTGYLVLDEEQQPSQPQSALECHPERGCVPEPGAAVAASKGLPQQLPAPPDEDDSAAPSTLSLLGPTFPGLSSCSADLKDILSEASTMQLLQQQQQEAVSEGSSSGRAREASGAPTSSKDNYLGGTSTISDNAKELCKAVSVSMGLGVEALEHLSPGEQLRGDCMYAPLLGVPPAVRPTPCAPLAECKGSLLDDSAGKSTEDTAEYSPFKGGYTKGLEGESLGCSGSAAAGSSGTLELPSTLSLYKSGALDEAAAYQSRDYYNFPLALAGPPPPPPPPHPHARIKLENPLDYGSAWAAAAAQCRYGDLASLHGAGAAGPGSGSPSAAASSSWHTLFTAEEGQLYGPCGGGGGGGGGGGGGGGGGGGGGGGEAGAVAPYGYTRPPQGLAGQESDFTAPDVWYPGGMVSRVPYPSPTCVKSEMGPWMDSYSGPYGDMRLETARDHVLPIDYYFPPQKTCLICGDEASGCHYGALTCGSCKVFFKRAAEGKQKYLCASRNDCTIDKFRRKNCPSCRLRKCYEAGMTLGARKLKKLGNLKLQEEGEASSTTSPTEETTQKL
Turning to B1, where the note is “DHT treated, parent: est. 2.4”, the response (Relative Luciferase Units) is 0.35. In addition, the other: Average Fold Change (DHT/EtOH treated) (DHT versus EtOH, parent: est. 2.2) came out at 0.9.
